Results from paper PMC7617692, “Structural evolution of fibril polymorphs during amyloid assembly” (Cell, 2023).
Bridge positions count the residues as written; N and C are the ends. Ends that are not written are not given here.

Biological target: the molecule itself
Assay: cryo-EM structure; fibrils grown quiescently in glass vials, 30 uM peptide, 20 mM ammonium acetate pH 6.8, room temperature; sampled at 3 weeks (lag phase), undiluted; helical reconstruction; repeated with a second reaction

B1: human islet amyloid polypeptide S20G variant (IAPP-S20G) (peptide)
chain: KCNTATCATQRLANFLVHSGNNFGAILSSTNVGSNTY-NH2
modifications: disulfide 2-7; N-terminus assumed
SMILES: CC[C@H](C)[C@H](NC(=O)[C@H](C)NC(=O)CNC(=O)[C@H](Cc1ccccc1)NC(=O)[C@H](CC(N)=O)NC(=O)[C@H](CC(N)=O)NC(=O)CNC(=O)[C@H](CO)NC(=O)[C@H](Cc1c[nH]cn1)NC(=O)[C@@H](NC(=O)[C@H](CC(C)C)NC(=O)[C@H](Cc1ccccc1)NC(=O)[C@H](CC(N)=O)NC(=O)[C@H](C)NC(=O)[C@H](CC(C)C)NC(=O)[C@H](CCCNC(=N)N)NC(=O)[C@H](CCC(N)=O)NC(=O)[C@@H](NC(=O)[C@H](C)NC(=O)[C@@H]1CSSC[C@H](NC(=O)[C@@H](N)CCCCN)C(=O)N[C@@H](CC(N)=O)C(=O)N[C@@H]([C@@H](C)O)C(=O)N[C@@H](C)C(=O)N[C@@H]([C@@H](C)O)C(=O)N1)[C@@H](C)O)C(C)C)C(=O)N[C@@H](CC(C)C)C(=O)N[C@@H](CO)C(=O)N[C@@H](CO)C(=O)N[C@H](C(=O)N[C@@H](CC(N)=O)C(=O)N[C@H](C(=O)NCC(=O)N[C@@H](CO)C(=O)N[C@@H](CC(N)=O)C(=O)N[C@H](C(=O)N[C@@H](Cc1ccc(O)cc1)C(N)=O)[C@@H](C)O)C(C)C)[C@@H](C)O
notes: islet amyloid polypeptide (IAPP, amylin), human, 37-residue hormone, familial early-onset T2D variant S20G; Assembles into amyloid fibrils of two, three or four protofilaments; the number of chains in a fibril is open-ended; Purity >95% by analytical HPLC, mass 3873.3 Da; also called hIAPP-S20G; S20G-IAPP; source: synthetic peptide (Fmoc solid phase, oxidised, reverse-phase HPLC purified)
- binding result: binds
